For this assay, the target named is T1, N-terminal domain of T. brucei PEX14 (residues 19-84) (T. brucei, UniProt Q38CL4 19-84).
T1 construct: also called N-His-PEX14; source: E. coli BL21(DE3), purified (Ni-NTA, Superdex 75); not shown: His tag, N-terminal, kept
T1 sequence (looked up): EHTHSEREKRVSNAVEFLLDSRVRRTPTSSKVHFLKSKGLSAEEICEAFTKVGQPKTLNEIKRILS
The assay is described as follows: AlphaScreen or HTRF; 3 nM N-His-PEX14 with 10 nM biotinylated PEX5-derived peptide in PBS with 5 mg/mL BSA and 0.01 % (v/v) Tween-20; streptavidin donor beads and nickel chelate acceptor beads, 5 ug/mL each; competition with small-molecule inhibitors (600-0 uM), 5% DMSO. The settings on record: both partners purified. (Bead proximity is the source of the signal in Alpha formats.)

Where no end group is shown, it is not given here.

B1: biotinylated PEX5-derived peptide (ALSENWAQEFLA) (peptide)
peptide: ALSENWAQEFLA
modifications: also: biotinylated (position not given here)
notes: PEX5-derived peptide with a WxxxF motif; Held on streptavidin donor beads by its biotin; The same peptide was used with PEX14 of all three species
Regarding B1, the binding result was “binds”.

Source of the values: publication doi:10.1101/2025.08.01.668090, “Target Preference Maps: A machine learning model generalizing transferable drug-receptor interactions and guiding drug discovery” (bioRxiv, 2025).
